From PMC7035337 (2020)

Target: T1, DSP_linker (Homo sapiens (Human), UniProt P15924)
T1 chain: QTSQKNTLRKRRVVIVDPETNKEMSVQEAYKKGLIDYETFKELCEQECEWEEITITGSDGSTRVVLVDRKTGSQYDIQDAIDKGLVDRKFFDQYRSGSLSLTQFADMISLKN
Experiment: MST

B1: VIM_rod (protein)
chain 1: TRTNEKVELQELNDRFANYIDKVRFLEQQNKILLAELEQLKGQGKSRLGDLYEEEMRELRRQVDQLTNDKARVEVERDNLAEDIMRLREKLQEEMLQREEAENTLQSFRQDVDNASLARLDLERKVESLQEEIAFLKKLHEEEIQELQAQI
chain 2: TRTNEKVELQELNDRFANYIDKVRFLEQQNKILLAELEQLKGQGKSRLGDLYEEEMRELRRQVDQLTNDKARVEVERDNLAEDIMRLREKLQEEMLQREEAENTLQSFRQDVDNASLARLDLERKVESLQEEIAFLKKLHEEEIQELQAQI
Kd: > 800 µM
